From publication PMC6358605

Biological target: biotinylated AviTag-BiP^19–413 (NBD), G3I8R9
Test: BLI
Conditions: chain shown with the change; for response: equilibrium signal, read off a plot; for other: K1/2 max: streptavidin biosensors loaded with biotinylated BiP NBD, equilibrium signal vs [MANF] 0-100 µM, parent: 13.9

Chain of biotinylated AviTag-BiP^19–413 (NBD), G3I8R9 (G3I8R9 19-413): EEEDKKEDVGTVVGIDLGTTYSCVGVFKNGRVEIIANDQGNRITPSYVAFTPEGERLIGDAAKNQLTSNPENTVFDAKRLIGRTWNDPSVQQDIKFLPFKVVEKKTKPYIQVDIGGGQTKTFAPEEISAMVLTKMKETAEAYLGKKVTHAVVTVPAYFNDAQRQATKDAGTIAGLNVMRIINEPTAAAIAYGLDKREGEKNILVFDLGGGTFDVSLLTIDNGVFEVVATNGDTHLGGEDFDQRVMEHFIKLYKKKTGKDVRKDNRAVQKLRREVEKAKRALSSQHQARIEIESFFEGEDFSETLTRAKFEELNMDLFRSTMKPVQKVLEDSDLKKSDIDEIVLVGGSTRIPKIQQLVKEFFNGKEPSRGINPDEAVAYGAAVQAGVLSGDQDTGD

response (50 µM MANF, parent: est. 0.68) [nm]	response (100 µM MANF, parent: est. 0.78) [nm]	other: K1/2 max (R2 0.913) [µM]	other: K1/2 max (R2 0.978) [µM]	Binder
0.17	0.24	–	–	Full-length mouse MANF (wild-type), Q9CXI5 E153A (protein) LRPGDCEVCISYLGRFYQDLKDRDVTFSPATIEEELIKFCREARGKENRLCYYIGATDDAATKIINEVSKPLAHHIPVEKICEKLKKKDSQICELKYDKQIDLSTVDLKKLRVKELKKILDDWGEMCKGCAAKSDYIRKINELMPKYAPKAASARTDL
0.3	0.42	31	–	Full-length mouse MANF (wild-type), Q9CXI5 K138A (protein) LRPGDCEVCISYLGRFYQDLKDRDVTFSPATIEEELIKFCREARGKENRLCYYIGATDDAATKIINEVSKPLAHHIPVEKICEKLKKKDSQICELKYDNQIDLSTVDLKKLRVKELAKILDDWGEMCKGCAEKSDYIRKINELMPKYAPKAASARTDL
0.52	0.58	–	15.3	Full-length mouse MANF (wild-type), Q9CXI5 R23A (protein) LAPGDCEVCISYLGRFYQDLKDRDVTFSPATIEEELIKFCREARGKENRLCYYIGATDDAATKIINEVSKPLAHHIPVEKICEKLKKKDSQICELKYDNQIDLSTVDLKKLRVKELKKILDDWGEMCKGCAEKSDYIRKINELMPKYAPKAASARTDL
0.1	0.13	–	–	Full-length mouse MANF (wild-type), Q9CXI5 R133E (protein) LRPGDCEVCISYLGRFYQDLKDRDVTFSPATIEEELIKFCREARGKENRLCYYIGATDDAATKIINEVSKPLAHHIPVEKICEKLKKKDSQICELKYDKQIDLSTVDLKKLEVKELKKILDDWGEMCKGCAEKSDYIRKINELMPKYAPKAASARTDL
